5 molecules from patent US20260103686A1, “MICROBIAL STRAIN, PROTEIN, AND METHOD FOR PRODUCING GALLIC ACID USING MICROBIAL STRAIN OR PROTEIN” (UNIVERSITY OF TSUKUBA, priority 2022, published 2026) can be followed below.

The nature of data set [1]: Analysis of gallic acid-producing activities of purified enzymes (HPLC). It counts as biochemical. To be noted: 2 mM PCA, 0.5 mM NADPH, 10 μg enzyme, 30° C., 30 minutes, pH 7.9. Here is the method:
Using the purified enzyme liquids of HyPobA, PoPobA, HgPobA-TY and PaPobA described above, the gallic acid-producing activities were analyzed.
By adding 10 μM FAD, 0.5 mM NADPH, 2 mM PCA and 10 μg of the respective purified enzyme liquids to 20 mM Tris-HCl buffer (pH 7.9), 100 μL of reaction liquids were prepared.

A short description of data set [2]: Reaction kinetic analysis of purified enzymes, substrate PCA (NADPH absorbance at 340 nm). Type of data set: biochemical. To be noted: relative to PaPobA. How it is done: Using the purified enzyme liquids of HgPobA, HgPobA-TY, PoPobA, HyPobA and PaPobA described above, a reaction kinetic analysis was conducted.

B1: HyPobA: Hydrogenophaga sp.-derived PobA, protocatechuic acid 5-hydroxylase (SEQ ID NO: 21) (protein, listed as Hydrogenophaga sp.)
chain: MRTQVGIIGAGPAGLMLAHMLHLEGIESVIIERSKREHVQNRLRAGVLEQGTVEMMRELGLGERIGQLGLEQHRIDFRFGGESHPIDFHEATGGRSAWVYPQHEVVKDLMAARTAAGAQMLFETPVTAIEGIDGTRPVVRFEKDGVAGELHCDFVVGCDGFRGISRRAIPAREGQVHDRIYPFGWLGILAEAPPATNEVTWGCHEDGFAMMSIRTPSVTRLYLQCEPDENPDHWSDDRIWSALHKRLDVPGLPPINEGRITQKGVTAMRSFLFEPMQHGRLFLAGDAAHIVPPTGAKGLNSAMADVKVLARALEQHYQRGSQDLLARYSKTCLKRMWLVQRFSAGLCTMVHSFAGDSSFVRRLQRADLDYMTGTTAGRLQFSENFTGLPID
B1: in data set [1], the “relative activity of producing gallic acid from PCA (PaPobA regarded as 1)” value (“relative activity” for short) is reported as 20 times. The “kcat value for PCA compared with that of PaPobA” value in data set [2] is given as “higher kcat values than that of PaPobA”.

B2: HgPobA: Hylemonella gracilis-derived PobA, protocatechuic acid 5-hydroxylase (SEQ ID NO: 20) (protein, listed as Hylemonella gracilis)
chain: MSYPTRTQVAIIGAGPSGLMLGALLHKAGIDTVVLERQSGDYVLGRIRAGVLEQVTMDLMDEIGVGARMHQEGLVHGGFDMLFQGQRHRIDMNRLTGGQNVMVYGQTEVTRDLMDARQQAGLTTIYEAANVAIHDFGSGKPRVTYEKDGKTHELQCDFIAGCDGFHGVCRDTVKKSASASAIREYEKVYNFGWLGLLSDTPPVHHELIYVNSERGFALCSQRSATRSRYYLQVPLTDKVEQWSDQAFWDELKLRLDPQAREHLVTGPSIEKSIAPLRSFVTEPLRFGRLFLAGDAGHIVPPAGAKGLNLAATDVKYLSAALTEFYQGKSEAGINHYSERCLKRIWRAERFSWWFTSLMHRFPENGEIGQKLQEAELDYIVHSETGARSVAENFVGLPLDFGA
With B2, the “kcat value for PCA compared with that of PaPobA” value in data set [2] was “higher kcat values than that of PaPobA”.

B3: HgPobA-TY: mutant protein of HgPobA with two mutations T302A and Y393F (protein, listed as Hylemonella gracilis)
chain: B2 chain
Consider B3, for which the “relative activity” value in data set [1] is “eight”. Moreover, in data set [2], the “Km value for PCA compared with that of PaPobA” value is listed as “one third or less”.

B4: PaPobA: Pseudomonas aeruginosa-derived PobA (SEQ ID NO: 28), known enzyme with high PCA-hydroxylating activity (protein, listed as Pseudomonas aeruginosa)
chain: MKTQVAIIGAGPSGLLLGQLLHKAGIDNVILERQTPDYVLGRIRAGVLEQGMVDLLREAGVDRRMARDGLVHEGVEIAFAGQRRRIDLKRLSGGKTVTVYGQTEVTRDLMEAREACGATTVYQAAEVRLHDLQGERPYVTFERDGERLRLDCDYIAGCDGFHGISRQSIPAERLKVFERVYPFGWLGLLADTPPVSHELIYANHPRGFALCSQRSATRSRYYVQVPLSEKVEDWSDERFWTELKARLPSEVAEKLVTGPSLEKSIAPLRSFVVEPMQHGRLFLAGDAAHIVPPTGAKGLNLAASDVSTLYRLLLKAYREGRGELLERYSAICLRRIWKAERFSWWMTSVLHRFPDTDAFSQRIQQTELEYYLGSEAGLATIAENYVGLPYEEIE
Consider B4, for which the “relative activity” value in data set [1] is reported as 1 times.

B5: PoPobA: Polaromonas sp.-derived PobA, protocatechuic acid 5-hydroxylase (SEQ ID NO: 22) (protein, listed as Polaromonas sp.)
chain: MRTQVGIVGAGPAGLMLSHMLHLEGIESVIIERASREHVQSRLRAGVLEHGTVDMLRELGLGERIGKIGLEQHAIDFRFGGESHRLDFHQATNGRSAWVYPQHELVTDLMNARMQAGAEILFETPVTRIDGLHTSKPTVHFEQGGEPRELVCDFVVGCDGFRGVCRDAIPDTVLKTYDRVYPFGWLGILAEAPAPTREITWGCHEEGFAMLSIRSPSVTRLYLQCEPDDDPDHWSDDHIWAELHKRLDVPGMPPVNEGKIMQKGVTAMRSFLAEPMQYGKLFLAGDAAHIVPPTGAKGLNSAMADVKVLGRGLAEKYRRGADHLLERYSQICLKRMWLVQRFSAGLCTMVHQFPGDNAFVRRLQRADLDYMTGTAAGRLAFSENFTGLPIE
B5: the “relative activity” value in data set [1] was 20 times. The “kcat value for PCA compared with that of PaPobA” value in data set [2] is “higher kcat values than that of PaPobA”.
